For this test, the target named is human cancer-specific MUC1 (on breast cancer cell line T-47D cells) (human, UniProt P15941 24-1255, cancer-specific incomplete O-glycosylation (T, Tn, 2,3ST) of the tandem repeat, as described in the background). As to the kind of experiment: Cell ELISA. (In an ELISA, binding on a coated surface is turned into a signal by an enzyme label.)

Changes are numbered by the printed parent chain.

B1: P10-1 Fab (Fab, V domains shown)
VH: QVQLVQSGAEVKKPGASVKVSCKASGYTFTNYGLSWVRQAPGQGLEWMGENHPGSGIIYHNEKFRGRVTLTADRSTSTAYMELSSLRSEDTAVYYCARSSGTRGFAYWGQGTLVTVSS
VL: DVVMTQTPLSLSVTPGQPASISCRSSQSIVHSNGNTYLEWYLQKPGQSPQLLIYRVSNRFSGVPDRFSGSGSGTDFTLKISRVEAEDVGVYYCFQGSHGPWTFGQGTKLEIKR
Broadly, the Kd is the equilibrium constant for the complex coming apart. Lower therefore signals a tighter complex. For B1, the Kd was 0.35 nM.

B2: P10-2 Fab (Fab, V domains shown)
VH: B1 VH with A106D
VL: B1 VL
modifications: heavy chain N-terminal glutamine modified into pyroglutamic acid in a great majority of purified antibodies (Example 2)
In turn, B2 yielded a Kd of 0.29 nM.

For the origin of these results see US20210340276A1 (published 2021).
